Measurements reported in patent US20220089777A1 (ARONORA, published 2022).

Assays:
[1] = biological target: T1, human coagulation factor XI (human, UniProt P03951 19-625); test: earlier solid phase binding assay (FIG. 2D), biotinylated 14E11 on immobilized FXI
[2] = biological target: T2, mouse coagulation factor XI (mouse, UniProt Q91Y47 19-624); test: as above
T2 construct: also called mouse FXI; mFXI

[3] = biological target: T1, human coagulation factor XI; test: cell-based or functional assay
[4] = biological target: human activated coagulation factor XI (FXIa) (human) (UniProt P03951); test: solid phase binding assay, biotinylated 14E11 on immobilized human FXIa
[5] = biological target: T1, human coagulation factor XI; test: solid phase binding assay, biotinylated 14E11 on immobilized human FXI
[6] = biological target: T2, mouse coagulation factor XI; test: solid phase binding assay, biotinylated 14E11 on immobilized mouse FXI
[7] = biological target: T1, human coagulation factor XI; test: solid phase binding assay, biotinylated antibody on immobilized FXI, apparent Kd
[8] = biological target: T2, mouse coagulation factor XI; test: as above
[9] = biological target: human activated coagulation factor XI (FXIa) (human) (UniProt P03951); test: earlier solid phase binding assay (FIG. 2D), biotinylated 14E11 on immobilized FXIa
[10] = biological target: T3, human activated coagulation factor XI (FXIa) (human, UniProt P03951 19-625); test: solid phase binding assay, biotinylated antibody on immobilized FXIa, apparent Kd
T3 construct: also called human FXIa; hFXIa
Experimental: Microtiter plates were coated with FXI or FXIa (2 μg/ml, 100 μL/well) in 50 mmol/L Na₂CO₃ pH 9.6 was incubated overnight at 4° C. in Immulon 2HB microtiter plates (Thermo Scientific). Wells were blocked with 150 μL phosphate buffered saline (PBS) with 2% BSA for 1 hour at room temperature. […] After washing with PBS-0.1% Tween-20 (PBS T), 100 μL streptavidin-horse-radish-peroxidase (ThermoFisher Scientific, 1:8000 dilution in FIBS) was added, and incubated at room temperature for 90 minutes. After washing with PBS-T, 100 μL substrate solution (12 mL 30 mmol/L citric acid; 100 mmol/L Na₂HPO₄, pH 5.0; and 1 o-phenylenediamine dihydrochloride tablet, 12 μL 30% H₂O₂) was added. Reactions were stopped after 10 min with 50 μL 2.5 M H₂SO₄. […] The data was analyzed by non-linear regression analysis and the apparent Kd (equilibrium dissociation constant) was calculated as the concentration of AB023 needed to achieve half-max binding at equilibrium using GraphPad Prism (v. 5.0).

Chain of 14E11, murine monoclonal anti-FXI antibody (VH): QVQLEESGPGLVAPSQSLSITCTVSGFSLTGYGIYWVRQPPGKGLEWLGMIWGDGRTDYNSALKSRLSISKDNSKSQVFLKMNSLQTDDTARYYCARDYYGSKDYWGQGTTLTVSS
Chain of 14E11, murine monoclonal anti-FXI antibody (VL): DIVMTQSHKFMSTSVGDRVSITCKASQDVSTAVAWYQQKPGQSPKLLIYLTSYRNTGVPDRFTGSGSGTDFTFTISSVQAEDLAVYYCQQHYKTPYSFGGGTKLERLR

Kd [1] | Kd [2] | aPTT of plasma, antibody concentration at maximum inhibition [3] | EC50 (read off the curve) [4] | EC50 (read off the curve) [5] | EC50 (read off the curve) [6] | Kd [7] | Kd [8] | Kd [9] | fold prolongation of aPTT of FXI deficient plasma + 10 µg/mL FXI after adding 100 µg/mL AB023 [3] | Kd [10] | Molecule
2 to 3 pM | 2 to 3 pM | 25 to 50 nM | 3 pM | 3 pM | 3 pM | 390 pM | 70 pM | 2 to 3 pM | – | – | 14E11, murine monoclonal anti-FXI antibody
– | – | – | – | – | – | 3200 pM | 160 pM | – | ~2 fold | 1300 pM | AB023, humanized anti-FXI monoclonal antibody (variant VH3/Vκ3, clone 3G3) (antibody, V domains shown, Human IgG4 with S241P (Kabat) hinge modification, kappa light chain; also called A13023; A8023) VH: QVQLQESGPGLVKPSETLSITCTVSGFSLTGYGIYWVRQPPGKGLEWLGMIWGDGRTDYNSALKSRVTISKDNSKSQVSLKLSSVTAADTARYYCARDYYGSKDYWGQGTTVTVSS VL: DIQMTQSPSSLSASVGDRVTITCKASQDVSTAVAWYQQKPGKAPKLLIYLTSYRNTGVPDRFSGSGSGTDFTFTISSLQPEDIAVYYCQQHYKTPYSFGGGTKVEIKR
